Laboratory results from patent publication US20250034266A1 (ZAI LAB SHANGHAI, published 2025).
Like-named read-outs stand apart in the source and are kept apart here.

Key:
human CCR8 [1] = molecular target: T1, human CCR8 (human, UniProt P51685 1-355); test: FACS, competition with AF647-human CCL1 on CHO-K1-human CCR8 cells
T1 construct: whole, on cells; also called hCCR8
Description: Blocking curves were generated to rank the blocking activities of PTM sites removed antibodies. Briefly, a total of 5×10⁴ CHO-K1-human CCR8 cells for each well were seeded in 96-well plate. Cells were incubated by series diluted purified hybridoma antibodies and 4 nM AF647 labeled human CCL1 (Almac, #CAF-07) for 1 hour at 4° C. Antibodies were prepared with 3-fold serial dilution ranging from 100 nM to 0.0051 nM in FACS buffer. Then, cells were washed by FACS buffer for three times after incubation. […] FlowJo software was used for analysis. Data was plotted as the logarithm of antibody concentration versus mean fluorescence signals. IC₅₀ values were determined in GraphPad Prism 8 (GraphPad Software) using a log(agonist) vs. response-Variable slope (4 parameters) curve fit.

human CCR8 [2] = molecular target: T1, human CCR8; test: FACS on HEK293-human CCR8 cells
Description: (§1) Binding affinities of NG site removed antibodies were determined on human CCR8 and cynomolgus CCR8 overexpression cells. Briefly, CFSE labeled HEK293-human CCR8 cells or CFSE labeled HEK293-cynomolgus CCR8 cells were mixed with HEK293 cells. The mixed ratio was 1:1. A total of 5×10⁴ mixed cells for each well were seeded in 96-well plates and washed by FACS buffer (DPBS containing 1% FBS) once. Cells were incubated by serial diluted purified hybridoma antibodies for 1 hour at 4° C. Antibodies were prepared with 3-fold serial dilution ranging from 100 nM to 0.0017 nM or from 25.3165 nM to 0.0004 nM in FACS buffer. […] After primary antibody incubation, cells were washed by FACS buffer for three times. Then, cells were stained with secondary antibody (Alexa Flu647-conj gated rabbit anti-mouse IgG, Jackson ImmunoResearch, #315606046) at 1:600 dilution in FACS buffer, incubated for 0.5 hour at 4° C. […] FlowJo software was used for analysis. Data was plotted as the logarithm of antibody concentration versus mean fluorescence signals. EC₅₀ values were calculated in GraphPad Prism 8 (GraphPad Software) using a log (agonist) vs. response-Variable slope (4 parameters) curve fit.

cynomolgus CCR8 [3] = molecular target: T2, cynomolgus CCR8 (cynomolgus, UniProt G7NYJ2 1-355); test: FACS on HEK293-cynomolgus CCR8 cells
T2 construct: whole, on cells
T2 sequence (G7NYJ2 entry or part of it): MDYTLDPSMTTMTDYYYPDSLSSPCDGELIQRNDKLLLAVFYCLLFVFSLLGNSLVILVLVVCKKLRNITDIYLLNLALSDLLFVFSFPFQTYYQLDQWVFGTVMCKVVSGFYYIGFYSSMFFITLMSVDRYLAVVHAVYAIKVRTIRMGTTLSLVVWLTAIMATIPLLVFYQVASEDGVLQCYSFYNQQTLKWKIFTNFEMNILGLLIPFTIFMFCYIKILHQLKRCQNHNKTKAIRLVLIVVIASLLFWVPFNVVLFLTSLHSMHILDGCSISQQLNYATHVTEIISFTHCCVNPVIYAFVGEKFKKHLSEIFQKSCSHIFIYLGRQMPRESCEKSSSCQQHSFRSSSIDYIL
Description: as §1

human CCR8 [4] = molecular target: T1, human CCR8; test: FACS on CHO-K1-human CCR8 cells
cynomolgus CCR8 [5] = molecular target: T2, cynomolgus CCR8; test: FACS on HEK293-cynomolgus CCR8 cells; remark: listed apart in the source
human CCR8 [6] = molecular target: T1, human CCR8; test: FACS on HuT78 cells (endogenous human CCR8)
Description: HuT78 cells expressing endogenous human CCR8 were used for determining binding affinities of selected affinity matured anti-CCR8 antibodies. Briefly, a total of […] cells for each well were seeded in 96-well plates and washed with FACS buffer (DPBS containing […]) for once. […] Cells were incubated with 50 μL of diluted antibodies at 4° C. for 1 hour. After primary antibody incubation, cells were washed for 3 times by FACS buffer. Then, cells were stained by Alexa Fbu647 labeled anti-human IgG secondary antibody (Jackson ImmunoResearch, #109606170) at 1:600 dilution in FACS buffer for 0.5 hour at 4° C. After 3 times washed, flow cytometry (Sartourius, iQue3) was performed to measure the binding affinities of antibodies. […]

human CCR8 [7] = molecular target: T1, human CCR8; test: FACS, competition with CCL1 on CHO-K1-human CCR8 cells

T1 sequence (P51685 whole entry): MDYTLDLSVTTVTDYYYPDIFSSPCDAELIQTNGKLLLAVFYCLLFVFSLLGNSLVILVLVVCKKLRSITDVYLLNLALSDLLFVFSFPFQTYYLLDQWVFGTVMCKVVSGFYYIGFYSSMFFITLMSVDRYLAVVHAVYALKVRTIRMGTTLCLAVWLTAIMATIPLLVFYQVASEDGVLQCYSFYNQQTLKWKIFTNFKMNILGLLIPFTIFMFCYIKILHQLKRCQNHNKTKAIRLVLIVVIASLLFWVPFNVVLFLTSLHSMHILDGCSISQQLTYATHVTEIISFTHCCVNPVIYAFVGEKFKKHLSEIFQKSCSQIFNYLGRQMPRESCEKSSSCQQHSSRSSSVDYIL

Binder | IC50 (human CCR8 [1]) [nM] | Max Inhibition (%) (human CCR8 [1]) | EC50 (human CCR8 [2]) [nM] | Max MFI (human CCR8 [2]) [MFI] | EC50 (cynomolgus CCR8 [3]) [nM] | Max MFI (cynomolgus CCR8 [3]) [MFI] | EC50 (human CCR8 [4]) [nM] | Max MFI (human CCR8 [4]) [MFI] | EC50 (cynomolgus CCR8 [5]) [nM] | Max MFI (cynomolgus CCR8 [5]) [MFI] | Max MFI (human CCR8 [6]) [MFI] | IC50 (human CCR8 [7]) [nM] | Max Inhibition (%) (human CCR8 [7])
149F2C10_G29A (antibody, V domains shown, NG site removed variant of 149F2C10) VH: EVQLVESGGGLVQPKGSLKLSCAASGFTFNTYAMNWVRQAPGKGLEWVARIRSKSNFYATYYADSVKDRFTISRDDSQDMLYLQMNILKTEDTAIYYCVRGRDYGSSYAMDYWGQGTSVTVSS VL: DIVMTQAAPSVPVTPGESVSISCRSSKSLLHSNANTYLYWFLQRPGQSPQLLIYRMSNLASGVPDRFSGSGSGTAFTLRISRVEAEDVGVYYCMQHLEYPLTFGAGTKLELK | 0.725 | 77.5 | 0.129 | 2040 | 0.173 | 4720 | – | – | – | – | – | – | –
149F2C10-CHO (antibody, V domains shown, The suffix -CHO is not explained) VH: EVQLVESGGGLVQPKGSLKLSCAASGFTFNTYAMNWVRQAPGKGLEWVARIRSKSNFYATYYADSVKDRFTISRDDSQDMLYLQMNILKTEDTAIYYCVRGRDYGSSYAMDYWGQGTSVTVSS VL: DIVMTQAAPSVPVTPGESVSISCRSSKSLLHSNGNTYLYWFLQRPGQSPQLLIYRMSNLASGVPDRFSGSGSGTAFTLRISRVEAEDVGVYYCMQHLEYPLTFGAGTKLELK | 0.934 | 80.1 | 0.142 | 1740 | 0.131 | 3310 | – | – | – | – | – | – | –
149F2C10_N28S (antibody, V domains shown, NG site removed variant of 149F2C10) VH: EVQLVESGGGLVQPKGSLKLSCAASGFTFNTYAMNWVRQAPGKGLEWVARIRSKSNFYATYYADSVKDRFTISRDDSQDMLYLQMNILKTEDTAIYYCVRGRDYGSSYAMDYWGQGTSVTVSS VL: DIVMTQAAPSVPVTPGESVSISCRSSKSLLHSSGNTYLYWFLQRPGQSPQLLIYRMSNLASGVPDRFSGSGSGTAFTLRISRVEAEDVGVYYCMQHLEYPLTFGAGTKLELK | 15 | 44.9 | 0.21 | 1420 | 0.333 | 2020 | – | – | – | – | – | – | –
149F2C10_G29I (antibody, V domains shown, NG site removed variant of 149F2C10) VH: EVQLVESGGGLVQPKGSLKLSCAASGFTFNTYAMNWVRQAPGKGLEWVARIRSKSNFYATYYADSVKDRFTISRDDSQDMLYLQMNILKTEDTAIYYCVRGRDYGSSYAMDYWGQGTSVTVSS VL: DIVMTQAAPSVPVTPGESVSISCRSSKSLLHSNINTYLYWFLQRPGQSPQLLIYRMSNLASGVPDRFSGSGSGTAFTLRISRVEAEDVGVYYCMQHLEYPLTFGAGTKLELK | 1.09 | 70.7 | 0.146 | 2060 | 0.19 | 4640 | – | – | – | – | – | – | –
149F2C10_N28Q (antibody, V domains shown, NG site removed variant of 149F2C10; detected with anti-mouse IgG) VH: EVQLVESGGGLVQPKGSLKLSCAASGFTFNTYAMNWVRQAPGKGLEWVARIRSKSNFYATYYADSVKDRFTISRDDSQDMLYLQMNILKTEDTAIYYCVRGRDYGSSYAMDYWGQGTSVTVSS VL: DIVMTQAAPSVPVTPGESVSISCRSSKSLLHSQGNTYLYWFLQRPGQSPQLLIYRMSNLASGVPDRFSGSGSGTAFTLRISRVEAEDVGVYYCMQHLEYPLTFGAGTKLELK | 3.07 | 55.7 | 0.161 | 1640 | 0.209 | 2450 | – | – | – | – | – | – | –
149F2C10_N28I (antibody, V domains shown, NG site removed variant of 149F2C10) VH: EVQLVESGGGLVQPKGSLKLSCAASGFTFNTYAMNWVRQAPGKGLEWVARIRSKSNFYATYYADSVKDRFTISRDDSQDMLYLQMNILKTEDTAIYYCVRGRDYGSSYAMDYWGQGTSVTVSS VL: DIVMTQAAPSVPVTPGESVSISCRSSKSLLHSIGNTYLYWFLQRPGQSPQLLIYRMSNLASGVPDRFSGSGSGTAFTLRISRVEAEDVGVYYCMQHLEYPLTFGAGTKLELK | 2.25 | 65.3 | 0.244 | 1650 | 0.314 | 1890 | – | – | – | – | – | – | –
149F2C10_G29V (antibody, V domains shown, NG site removed variant of 149F2C10) VH: EVQLVESGGGLVQPKGSLKLSCAASGFTFNTYAMNWVRQAPGKGLEWVARIRSKSNFYATYYADSVKDRFTISRDDSQDMLYLQMNILKTEDTAIYYCVRGRDYGSSYAMDYWGQGTSVTVSS VL: DIVMTQAAPSVPVTPGESVSISCRSSKSLLHSNVNTYLYWFLQRPGQSPQLLIYRMSNLASGVPDRFSGSGSGTAFTLRISRVEAEDVGVYYCMQHLEYPLTFGAGTKLELK | 1.04 | 72 | 0.194 | 1900 | 0.211 | 4680 | – | – | – | – | – | – | –
Hu149-21 (antibody, human IgG1, V domains shown, human IgG1) VH: EVQLVESGGGLVQPGGSLKLSCAASGFTFNTYAMNWVRQASGKGLEWVGRIRSKSNFYATAYAASVKGRFTISRDDSKNTAYLQMNSLKTEDTAVYYCTRGREYGRSYAMDYWGQGTLVTVSS VL: DIVMTQSPLSLPVTPGEPASISCRSSKSLLHSNANTYLYWFLQKPGQSPQLLIYRMSNLASGVPDRFSGSGSGTDFTLKISRVEAEDVGVYYCMQHLKYPLTFGGGTKVELK | – | – | – | – | – | – | 0.642 | 794000 | 0.946 | 4.15e+06 | 240000 | 0.796 | 101
Hu149-23 (antibody, human IgG1, V domains shown, human IgG1) VH: EVQLVESGGGLVQPGGSLKLSCAASGFTFNTYAMNWVRQAPGKGLEWVGRIRSKSNFYATAYAASVKGRFTISRDDSKNTAYLQMNSLKTEDTAVYYCTRGREYGSSYAMDYWGQGTLVTVSS VL: DIVMTQSPLSLPVTPGEPASISCRSSKSLLHSNANTYLYWFLQKPGQSPQLLIYRMSNLASGVPDRFSGSGSGTDFTLKISRVEAEDVGVYYCMQHLKYPLTFGGGTKVELK | – | – | – | – | – | – | 0.265 | 816000 | 0.369 | 4.32e+06 | 161000 | 0.259 | 103
Hu149-24 (antibody, human IgG1, V domains shown, human IgG1) VH: EVQLVESGGGLVQPGGSLKLSCAASGFTFNTYAMNWVRQAPGKGLEWVGRIRSKSNFYATAYAASVKGRFTISRDDSKNTAYLQMNSLKTEDTAVYYCTRGKEYGSSYAMDYWGQGTLVTVSS VL: DIVMTQSPLSLPVTPGEPASISCRSSKSLLHSNANTYLYWFLQKPGQSPQLLIYRMSNLASGVPDRFSGSGSGTDFTLKISRVEAEDVGVYYCMQHLKYPLTFGGGTKVELK | – | – | – | – | – | – | 0.166 | 844000 | 0.161 | 3.9e+06 | 198000 | 0.172 | 106
Hu149-22 (antibody, human IgG1, V domains shown, human IgG1) VH: EVQLVESGGGLVQPGGSLKLSCAASGFTFNTYAMNWVRQASGKGLEWVGRIRSKSNFYATAYAASVKGRFTISRDDSKNTAYLQMNSLKTEDTAVYYCTRGREYGSAYAMDYWGQGTLVTVSS VL: DIVMTQSPLSLPVTPGEPASISCRSSKSLLHSNANTYLYWFLQKPGQSPQLLIYRMSNLASGVPDRFSGSGSGTDFTLKISRVEAEDVGVYYCMQHLKYPLTFGGGTKVELK | – | – | – | – | – | – | 0.216 | 793000 | 0.462 | 4.25e+06 | 173000 | 0.459 | 101
